This test deals with T1, CFP tagged hABHD5 (FCCS) (human), Q8WTS1.
T1 chain: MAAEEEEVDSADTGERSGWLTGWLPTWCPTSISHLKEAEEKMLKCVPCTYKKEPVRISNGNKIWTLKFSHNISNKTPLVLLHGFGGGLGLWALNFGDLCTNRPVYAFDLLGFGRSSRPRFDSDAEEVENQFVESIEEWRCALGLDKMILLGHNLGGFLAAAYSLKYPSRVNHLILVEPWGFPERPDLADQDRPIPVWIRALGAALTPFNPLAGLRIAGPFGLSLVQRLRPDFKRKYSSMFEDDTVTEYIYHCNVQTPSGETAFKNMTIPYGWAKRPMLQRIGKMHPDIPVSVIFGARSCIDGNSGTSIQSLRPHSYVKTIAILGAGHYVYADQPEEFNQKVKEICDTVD
Description: fluorescence cross-correlation spectroscopy. Particulars: remark: other sources report otherwise.

B1: hPNPLA3 WT-EYFP, Q9NST1 1-481 (natural protein)
chain: MYDAERGWSLSFAGCGFLGFYHVGATRCLSEHAPHLLRDARMLFGASAGALHCVGVLSGIPLEQTLQVLSDLVRKARSRNIGIFHPSFNLSKFLRQGLCKCLPANVHQLISGKIGISLTRVSDGENVLVSDFRSKDEVVDALVCSCFIPFYSGLIPPSFRGVRYVDGGVSDNVPFIDAKTTITVSPFYGEYDICPKVKSTNFLHVDITKLSLRLCTGNLYLLSRAFVPPDLKVLGEICLRGYLDAFRFLEEKGICNRPQPGLKSSSEGMDPEVAMPSWANMSLDSSPESAALAVRLEGDELLDHLRLSILPWDESILDTLSPRLATALSEEMKDKGGYMSKICNLLPIRIMSYVMLPCTLPVESAIAIVQRLVTWLPDMPDDVLWLQWVTSQVFTRVLMCLLPASRSQMPVSSQQASPCTPEQDWPCWTPCSPKGCPAETKAEATPRSILRSSLNFFLGNKVPAGAEGLSTFPSFSLEKSL
Molecule B1 showed a percent of ABHD5 co-diffusing with PNPLA3 of 24% and a percent of PNPLA3 co-diffusing with ABHD5 of 78%.

For the origin of these results see PMC11601262.
